Results on one substance are retold here after PMC11193720.

The target of experiment [1] is VZV glycoprotein C gC_(S147-V531) (varicella zoster virus, Dumas strain). The experiment is described as follows: SPR + other: grating-coupled interferometry (GCI).
Experiment [2] has as its target VZV glycoprotein C gC_(Y322-S523) (varicella zoster virus, Dumas strain). Nature of the experiment: SPR + other: grating-coupled interferometry (GCI).
In experiment [3] the target is VZV glycoprotein C gC_(Y419-S523) (varicella zoster virus, Dumas strain). The experiment is described as follows: SPR + other: grating-coupled interferometry (GCI).
VZV glycoprotein C gC_(Y419-S523) (varicella zoster virus, Dumas strain), sequence (P09256 450-554 limits assumed): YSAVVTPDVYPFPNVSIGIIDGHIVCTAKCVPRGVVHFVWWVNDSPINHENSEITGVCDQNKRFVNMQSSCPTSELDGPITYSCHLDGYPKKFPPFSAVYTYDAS
Experiment [4] has as its target VZV glycoprotein C construct gC Y419-S523 (varicella zoster virus (Dumas strain)). Nature of the experiment: SPR. (In general: In SPR one partner is held on a chip, and binding of the other changes the refractive index at the surface.)
Experiment [5] has as its target VZV glycoprotein C gC_(S147-V531) (varicella zoster virus, Dumas strain).

Broadly, the koff is a measure of how fast the partners let go of each other. For orientation: Kd means the concentration at which binding is half-saturated. The low end stands for a tighter complex, the high end for a looser complex. What is called kon is a measure of how fast the partners come together. Read a high kon as fast association.

VZV glycoprotein C construct gC Y419-S523 (varicella zoster virus (Dumas strain)), sequence (P09256 450-554 limits assumed): as above
VZV glycoprotein C gC_(S147-V531) (varicella zoster virus, Dumas strain), sequence (P09256 178-562 limits assumed): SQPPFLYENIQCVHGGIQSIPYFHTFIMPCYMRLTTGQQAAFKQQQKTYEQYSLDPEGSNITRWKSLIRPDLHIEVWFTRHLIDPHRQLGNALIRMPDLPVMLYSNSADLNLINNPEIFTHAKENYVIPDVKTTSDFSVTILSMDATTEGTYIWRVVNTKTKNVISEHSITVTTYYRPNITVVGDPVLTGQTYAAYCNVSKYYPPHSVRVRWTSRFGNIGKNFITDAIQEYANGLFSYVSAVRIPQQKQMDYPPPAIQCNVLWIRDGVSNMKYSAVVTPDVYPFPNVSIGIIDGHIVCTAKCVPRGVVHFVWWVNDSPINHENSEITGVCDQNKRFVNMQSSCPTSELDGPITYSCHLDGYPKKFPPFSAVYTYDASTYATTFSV
VZV glycoprotein C gC_(Y322-S523) (varicella zoster virus, Dumas strain), sequence (P09256 353-554 limits assumed): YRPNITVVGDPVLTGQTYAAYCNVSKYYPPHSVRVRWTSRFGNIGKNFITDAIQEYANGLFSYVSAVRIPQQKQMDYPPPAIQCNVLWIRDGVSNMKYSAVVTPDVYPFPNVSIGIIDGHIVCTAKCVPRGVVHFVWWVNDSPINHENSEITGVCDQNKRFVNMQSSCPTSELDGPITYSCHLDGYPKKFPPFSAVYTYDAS

As for “interferon-gamma (IFN-γ) (from UniProt P01579 24-161) (ligand)”, the off-rate of the transient interaction (Kd1), heterogenous ligand fit in experiment [1] is 0.04 s⁻¹. For the same substance, the off-rate of the transient interaction (Kd1), heterogenous ligand fit in experiment [2] was 0.04 s⁻¹. Also, the koff in experiment [3] came to 0.02 s⁻¹. In experiment [4], this substance displayed a Kd of 18 nM, a dissociation rate constant (koff) of 0.0244 s⁻¹ and an on-rate (kon) of 1.35e+06 M⁻¹ s⁻¹. The adhesion of Jurkat cells to HaCaT cells stimulated with 5 ng/mL IFN-γ and 300 nM gC construct, fold against IFN-γ alone in experiment [5] worked out at 2.7 fold.
